The nanobody polyreactivity screen of Harvey et al. (2022)

Assay: yeast display, Sf9 membrane polyspecificity reagent, FACS + sequencing; frameworks hold sequencing errors
In short: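 A synthetic nanobody library was expressed on Saccharomyces cerevisiae BJ5465 by galactose induction for 36–48 hours. The library was stained for 1 hour at 4 °C with 10% biotinylated, detergent-solubilized Sf9 membrane reagent and enriched with streptavidin microbeads before FACS. Low and high (top ~1%) gates were set on anti-HA fluorescence for expression and streptavidin fluorescence for reagent binding, and each polyreactivity label reflects the gate of origin.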

| Sequence | polyreactivity (PSR sort gate) |
| --- | --- |
| QVQLVESGGGLVQAGGSLRVSCAASGRTFARYAKGWYRQAPGKERELVAVISRTGSTYYADSVKGRFTISRDNAKNTVYLQMNSLKPEDTAVYYCATVYYYLAYGWSYSDMDYWGQGTQVTVSS | high polyreactivity |
| QVQLVESGGGLVQAGGSLRVSCAASGRTFDSYAMGWYRQAPGKEREFVAAISYSGTSTYYADSVKGRFTISRDNAKNTVYLQMNSLKPEDTAVYYCNAARETRPRDYYWGQGTQVTVSS | low polyreactivity |
| QVQLVESGGGLVQAGGSLRVSCAASGSIFKNNPMGWYRQAPGKERELVDANRYSGGRTYYAHSVKGRFTISRDHAKNTVYIQMNSLKPEVTAVYDCAAGSIQYRPTYTGDYWGQGSQVTVSS | high polyreactivity |
| QVQLVESGGGLVQAGGSLRVSCAASGSIFRFNVMGWYRQAPGKERELVAAITRGDSTNYADSVKGRFTISRDNAKNTVYLQMNSLKPEDTAVYYCAAGYYYYLRDHDYWGQGTQVTVSS | low polyreactivity |
| QVQLVESGGGLVQAGGSLRVSCAASGSIFYYAMGWYRQAPGKERELVASIRSGGSTKFADSVKGRFTISRDNAKNTVYLQMNSLKPEDTAVYYCAARGVIRYTYKSTPYDYWGQGTQVTVSS | high polyreactivity |
| QVQLVESGGGLVQAGGSLRVSCAASGSTFCSNAKGWYRQAPGKERELVAAISSGGSTNYADSVKGRFTISRDNAKNTVYLQMYSLKPEDTAVYYCAADRSPEYYWGQGTQVTVSS | low polyreactivity |
| QVQLVESGGGLVQAGGSLRVSCAASGSTFGTYGMGWYRPAPGKERELVADITSGGSTYYADSVKGRFTISRDNAKNTVYLQMNSLTPEDTAVYYCAASWFVWSTAVPYDYWGQGTQVTVSS | low polyreactivity |
| QVQLVESGGGLVQAGGSLRVSCAASGSTFGYYAMGWYREAPGKEREFVAAINYGDGNTYYADSVKGRFTISRDNAKNTVYLQMNRLKPEDTAVYYCATYYWAPTGAHGGYGYWVQGTQVTVSS | low polyreactivity |
| QVQLVESGGGLVQAGGSLRVSCAASGSTFSAYAMGWYRPAPGKERELVAAISASGGSTYYADSVKGRFTISRDNAKNTVSLQMNSLKPEDTAVYYCNADRWKYELDYWGQGTQVTVSS | high polyreactivity |
| QVQLVESGGGLVQAGGSLRVSCAASGSTFVGNAMGWYRQEPGKERELVADITSGGSTNYADSVKGRFTISRDNAKNTVYLQMKSLKPEDTAVYYFAAVYLCSQRREFWGQGTQVTVSS | low polyreactivity |
| QVQLVESGGGLVQAGGSLRVSCAPSGIIFGGNVMGWYRQAPGKERELVAGITSTGGRTYYADSVKGRFTISRDNAKNTVYLQMNSLKPEDTAVYYCAAVSTLVRGNFNRIRYGYWGHGTQVTVSS | high polyreactivity |
| QVQLVESGGGLVQAGGSLRVSCASSGSIFLDNAMEWYRQAPGKERELVAAISYGDGSTYYADSVKGRITISRDNAKNTVYLQMNRLKPEDTAVYYCAAERYTIPPIYDYWGQGTQVTVSS | low polyreactivity |
| QVQLVESGGGLVQAGGSLRVSCGASGRTFLFYAMGWYRQAPGKERELVASITGRGGRTSYADSEKGRFTISRDNAKNTVYLQKNSLKPEDTAVYYCAARNPYTSTYYDWGQGTQETVSS | high polyreactivity |
| QVQLVESGGGLVQAGGSLSIICAASGFTFRYYAMGWYREAPGKERELVAAISKSGTSTYYADSVKGRFTISRDNAKNTVYLQMNSLKPEDTAVYYCAARRGRRYYYWGQGTQVTVSS | high polyreactivity |
| QVQLVESGGGLVQAGGSLSISCAASGSIFLAYDMGWYRPAPGKARELVAAITAGTGSTYYADSVKGRFTISRDNAKNTVYLQMTSLKPDDTAVYYCAAELWGGTYGEYEYWGQGTQVTVSS | low polyreactivity |
| QVQLVESGGGLVQAGGSLSLICAASGFIFLYYAMGWYRQAPGKERELVADISRGADTKYADSVKGRFTISRDNAKNTVYLQMNSLKPEDTAVYYCATDITTFWFPYPGVELGYWGQGTQVTVSS | low polyreactivity |

| Sequence | polyreactivity (PSR sort gate) |
| --- | --- |
| QVQLVESGGGLVQAGGSLSLICAASRRSFYHYTMGWSRQAPGKERELVAAMTSGGSTYYADSVKGRFTISRDNAKNTVYLQMNSLKPEDTAVYYCARVRPLYDYSRYDYWGQRTQVTVSS | high polyreactivity |
| QVQLVESGGGLVQAGGSLSLSCAASGFIFYRYAMGWYRQAPGKERELVAAITSGGSTKYADSVKGRFTISRDNAKNTVYLQMNSLKPEYTAVYYCAADPFDWFSYYYWGQGTQVTVSS | low polyreactivity |
| QVQLVESGGGLVQAGGSLSLSCAASGFILDFNSLGWYRQAPGKERELVAAISISGVSTYYADSVKGRFTISRDNAKNTVYLQMHSLKPEDTAVYYGAAAQVAAVYWRPGGYDYWGQGTQVTVSS | low polyreactivity |
| QVQLVESGGGLVQAGGSLSLSCAASGFISASNVMGWYRHAPGKERELVAAINWSGDNTYYADSVKWRFTISRDTAKNTVYLLMNSLKAEDTAVYYCNDDVYSYATPEMDYWGQGTQVTVSS | low polyreactivity |
| QVQLVESGGGLVQAGGSLSLSCAASGFTFSWNAMGWYSQAPGKERELVATITRSGSTYYADSVKGRFTISRDNSKNTVYLQMNSLKPEDTAVYYCAVVSWYRYSRYVNDYWGQGTQVTVSS | high polyreactivity |
| QVQLVESGGGLVQAGGSLSLSCAASGGIFQVNSMGWYRQATGKEREVLAAISWSVGRTYYADSVKGRFTISRDNAKNTVYLQMNSLKPEDTAVYYCARYGKRGYYYWGQGTQVTVSS | low polyreactivity |
| QVQLVESGGGLVQAGGSLSLSCAASGITFGLYAMGWYRQATGKERELVAAITSGDRTYYADSVKGRFTISRDNAKNTVYLQMISLTPEDTAVNYCNAEAWWVYYYYGTYLAGSYYWGQGTQVTVSS | high polyreactivity |
| QVQLVESGGGLVQAGGSLSLSCAASGITFIHNAMGLYIQAPGKERELVAAITPSDGSTYYADSVKGRFTISRDNAKNTVFLQMNSLKPEDTAVYYCAARGRHSGYYSVPYYYWGQGTQVTVSS | low polyreactivity |
| QVQLVESGGGLVQAGGSLSLSCAASGITFSYYAMGWYRQAPGNERELVASINFSGGSTSYADSVKGRFTISRDNAKITVYFQMNSLKPEDPAVYYCAAQIWSKDEKHDYWGQGTKVTVSS | high polyreactivity |
| QVQLVESGGGLVQAGGSLSLSCAASGLIFYYYAMGWYRQAPGKERELVAAITRGGRTYYADSVKGRFTISRDNAKNTVYLQMNSLKPEDTAVYYCAAVTRVYGKTMGYWGQGTQVTVSS | high polyreactivity |
| QVQLVESGGGLVQAGGSLSLSCAASGLTFSAYAMGWYRQAPGKERELVAAISSGVSTNYADSVKGRFTISRDNAKNSVYLQMNSLKPEDTAVYYCKAEYWGAYEYWGQGTQVTVSS | high polyreactivity |
| QVQLVESGGGLVQAGGSLSLSCAASGLTSSENAMGWYRQAHGKERELVAAINVSGGSTYYADSVKGRFTISRDNAKNTVYLQMNSLKPEDTAVYYCAADNPYAYARSSWYEYNYWGQGTQVTVSS | high polyreactivity |
| QVQLVESGGGLVQAGGSLSLSCAASGRIFAGYAMGWYRQAPGKERELVAVISSRGGRTYYADSVKGRFTISRDNAKNTVYLQMNSLKPEDTAVYYCNRVFSYQYKRDYWGQGTQVTVSS | high polyreactivity |
| QVQLVESGGGLVQAGGSLSLSCAASGRIFTQYAMGWSRQAPGKERELVTAINASDGSTYADSVKGRFTISRDNAKNTVYLQMNCLIPEDTAVYYCNVTGGPYDFTRWSEFDHWGQGTQVTVSS | low polyreactivity |
| QVQLVESGGGLVQAGGSLSLSCAASGRILYSYAMGWYRQAPGKERELVASISLSGGRTYADSVKGRFTISRDNAKNTVYLQMNSLKPEDTAVYYCNARIRTSRYLWPFDYWGQGTQVTVSS | high polyreactivity |
| QVQLVESGGGLVQAGGSLSLSCAASGRTFGLNVMGWYRQAPGKERELVATISGVGSTNYADSVKWRFTISRDNAKNTVYLQMNSLKPEDTAVYYCAKDPHVGRWWDLYSPYYSWGQGTQVTVSS | low polyreactivity |
